Variants at the floor of the assay were thinned out.
What was measured:
biotinyl-Phe-oxazolone = experiment: self-aminoacylation, catalytic enhancement (BFO) (fold over background); higher = more active; k-Seq, kA / k0A0; sequences stand for … in GGGAAUGGAUCCACAUCUACGAAUUC…UUCACUGCAGACUUGACGAAGCUG
How it was run: (§1)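 Each biotinyl-aminoacyl-oxazolone, at 2–1250 μM, was incubated with mutagenized RNA pools (0.43 μM) carrying a 21-nt variable region. The 50 μL reactions contained HEPES/NaCl/KCl/MgCl2/CaCl2 buffer with 5% acetonitrile at pH 6.9–7.0 and ran for 90 minutes at room temperature. After streptavidin capture, RNA was measured by qPCR in triplicate and by Illumina sequencing, and catalytic enhancement was calculated as median kA over the uncatalyzed rate from a pseudo-first-order fit of per-sequence fraction reacted.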

biotinyl-Met-oxazolone = experiment: self-aminoacylation, catalytic enhancement (BMO) (fold over background); higher = more active; k-Seq, kA / k0A0; sequences stand for … in GGGAAUGGAUCCACAUCUACGAAUUC…UUCACUGCAGACUUGACGAAGCUG
How it was run: as §1

biotinyl-Trp-oxazolone = experiment: self-aminoacylation, catalytic enhancement (BWO) (fold over background); higher = more active; k-Seq, kA / k0A0; sequences stand for … in GGGAAUGGAUCCACAUCUACGAAUUC…UUCACUGCAGACUUGACGAAGCUG
How it was run: as §1

biotinyl-Leu-oxazolone = experiment: self-aminoacylation, catalytic enhancement (BLO) (fold over background); higher = more active; k-Seq, kA / k0A0; sequences stand for … in GGGAAUGGAUCCACAUCUACGAAUUC…UUCACUGCAGACUUGACGAAGCUG
How it was run: as §1

Row | Sequence | self-aminoacylation (biotinyl-Phe-oxazolone) | self-aminoacylation (biotinyl-Met-oxazolone) | self-aminoacylation (biotinyl-Trp-oxazolone) | self-aminoacylation (biotinyl-Leu-oxazolone)
1 | AAGUCUGCUAAUAGUCGCAAG [Fam3.1 aminoacylation ribozyme variant] | 51.8 | 2.44 | 9.75 | 
2 | AUUACCCUGGCCAACGAGUGA [Fam2.1 aminoacylation ribozyme variant] | 21 | 2.75 | 5.43 | 3.31
3 | CAGUUUGCUAAUAGUCGCAUG [Fam3.1 aminoacylation ribozyme variant] | 2.84 |  | 2.07 | 2.08
4 | AAGUUGGCUAAUUGUCGCAAG [Fam3.1 aminoacylation ribozyme variant] | 2.94 |  | 2.71 | 2.41
5 | AUUACCCUGGUCAUCGUGCGA [Fam2.1 aminoacylation ribozyme variant] | 9.74 |  | 2.28 | 2.14
6 | AUUCACAUAGGUCGUCGGGUG [Fam2.2 aminoacylation ribozyme variant] | 7.92 |  |  | 2.07
7 | AUUCACUUAGGUAAUCGGGUG [Fam2.2 aminoacylation ribozyme variant] | 19.6 | 3.11 | 2.72 | 3.33
8 | AUUCACCUAGGUCAGCGGCUG [Fam2.2 aminoacylation ribozyme variant] | 8.56 | 2.5 |  | 3.16
9 | AUUCACCUAUGUCAUUGGGUG [Fam2.2 aminoacylation ribozyme variant] | 9.21 | 2.03 | 2.13 | 2.34
10 | ACCUUUGCUAAUAGUCGCAAG [Fam3.1 aminoacylation ribozyme variant] | 2.02 |  | 2.06 | 2.31
11 | UAGUUUGUUAAUAGUCGCAAG [Fam3.1 aminoacylation ribozyme variant] | 3.23 |  |  | 2.05
12 | CUUCACCUAGGUCAACGGGUG [Fam2.2 aminoacylation ribozyme variant] | 9.32 | 2.28 |  | 2.48
13 | UAGUUUGCUAAUAGUCGCGAG [Fam3.1 aminoacylation ribozyme variant] | 2.58 |  | 2.02 | 2.08
14 | CCACUUCAAACAAUCGGUCUU [Fam1A.1 aminoacylation ribozyme variant] | 40.9 |  | 25.2 | 2.11
15 | AUUCACCUAGGUCAACUGGUG [Fam2.2 aminoacylation ribozyme variant] | 15.9 | 2.69 | 2.21 | 3.35
16 | CCACACUUCAGCCAAUCGGUC [Fam1B.1 aminoacylation ribozyme variant] |  |  | 2.11 | 2.27
17 | CCCCACUUCAAUCAAUCGGUC [Fam1B.1 aminoacylation ribozyme variant] | 37.1 |  | 31 | 2.28
18 | AAGUUUGCCAAUAGUCGCAAA [Fam3.1 aminoacylation ribozyme variant] | 2.47 | 2.37 |  | 
19 | AUUACCGUGGUCAUCAAGUGA [Fam2.1 aminoacylation ribozyme variant] | 4.54 | 2.83 | 3.6 | 3.05

Row | Sequence | self-aminoacylation (biotinyl-Phe-oxazolone) | self-aminoacylation (biotinyl-Met-oxazolone) | self-aminoacylation (biotinyl-Trp-oxazolone) | self-aminoacylation (biotinyl-Leu-oxazolone)
20 | AAGUUUGCCAAUAGUCGCAAU [Fam3.1 aminoacylation ribozyme variant] | 9.89 | 2.07 | 3.5 | 
21 | AUUCACCUAGGACAACGGGUG [Fam2.2 aminoacylation ribozyme variant] | 25.7 | 3.6 | 2.92 | 3.72
22 | AAGUUUGCUAAUAGUCGAAAA [Fam3.1 aminoacylation ribozyme variant] |  | 2.08 |  | 
23 | AAGUUAGCUAAAAGUCGCAAG [Fam3.1 aminoacylation ribozyme variant] | 2.41 |  |  | 2.01
24 | AUUACCCUGGUUAUCAAGUGA [Fam2.1 aminoacylation ribozyme variant] | 4.14 | 2.67 | 3.4 | 2.53
25 | AUUAGCCUGCUCAUCGAGUGA [Fam2.1 aminoacylation ribozyme variant] | 12.2 | 3.42 | 4.65 | 2.92
26 | AUUCACUUAGGUCAUAGGGUG [Fam2.2 aminoacylation ribozyme variant] | 3.24 |  |  | 2.08
27 | AUUACGCUCGUCAUCGAGUGA [Fam2.1 aminoacylation ribozyme variant] | 3.68 | 2.09 | 2.54 | 2.5
28 | AUUACCCUGGUCAGCGAGUGG [Fam2.1 aminoacylation ribozyme variant] | 2.26 | 2.51 | 2.61 | 2.51
29 | AUUAACCUAGUUCAUCGGGUG [Fam2.2 aminoacylation ribozyme variant] | 12.3 | 2.14 | 2.54 | 2.71
30 | AUUCAUCUAGGUCAUCAGGUG [Fam2.2 aminoacylation ribozyme variant] | 2.89 | 2.23 | 2.07 | 
31 | AUUCCCCUGGUCAUCAAGUGA [Fam2.1 aminoacylation ribozyme variant] | 3.87 | 2.36 | 2.34 | 
32 | AUUACACUGGUCAUCCAGUGA [Fam2.1 aminoacylation ribozyme variant] | 9.37 | 3.47 | 3.06 | 3.01
33 | AUCACCCUGGUCAUCGAGUUA [Fam2.1 aminoacylation ribozyme variant] | 4.31 | 2.93 | 2.62 | 2.83
34 | AGUACCCUGGUCAUCGAGUAA [Fam2.1 aminoacylation ribozyme variant] | 3.84 | 2.71 |  | 2.52
35 | CGACUUCAAGCAAUCGGUCUG [Fam1A.1 aminoacylation ribozyme variant] | 26.6 |  | 20.1 | 2.13
36 | AUCACCCUGGUCAUCGAGUGC [Fam2.1 aminoacylation ribozyme variant] | 4.47 | 3.26 | 2.4 | 2.56
37 | CAACUUCAAACAAUCGGUCUG [Fam1A.1 aminoacylation ribozyme variant] | 97.7 |  | 44.8 | 2.61
38 | AUUCACCUAGCUUAUCGGGUG [Fam2.2 aminoacylation ribozyme variant] | 4.71 | 2.12 | 2.2 | 

Row | Sequence | self-aminoacylation (biotinyl-Phe-oxazolone) | self-aminoacylation (biotinyl-Met-oxazolone) | self-aminoacylation (biotinyl-Trp-oxazolone) | self-aminoacylation (biotinyl-Leu-oxazolone)
39 | CACCUUCAAACAAUCGGUCUG [Fam1A.1 aminoacylation ribozyme variant] | 98.1 |  | 43.9 | 2.61
40 | AUUACCCUGGUCGUCGAGCGA [Fam2.1 aminoacylation ribozyme variant] | 3.35 |  |  | 2.17
41 | AUUCACCUAGUUCAUCGGGGG [Fam2.2 aminoacylation ribozyme variant] | 6.17 |  |  | 2.23
42 | CGACUUCAAACAAUCGGUCUG [Fam1A.1 aminoacylation ribozyme variant] | 102 |  | 44.4 | 2.66
43 | AUUACCCUGGUCAUCUCGUGA [Fam2.1 aminoacylation ribozyme variant] | 12.4 | 2.37 | 2.81 | 2.62
44 | AUUACCCUGCUCAUCGUGUGA [Fam2.1 aminoacylation ribozyme variant] | 14.7 | 2.7 | 3.19 | 2.85
45 | AUUACUCUGGUCAUCGAGUGG [Fam2.1 aminoacylation ribozyme variant] |  | 2.16 |  | 2.42
46 | AUUCACUUAGAUCAUCGGGUG [Fam2.2 aminoacylation ribozyme variant] | 10.8 | 2.14 | 2.82 | 2.57
47 | CUACAGUUCAAGCAAUCGGUC [Fam1B.1 aminoacylation ribozyme variant] | 4.84 |  | 2.96 | 
48 | AAGUCUGCUAACAGUCGCAAG [Fam3.1 aminoacylation ribozyme variant] | 28.4 | 2.09 | 7.03 | 
49 | CUACUUCAACCAAUCGGCCUG [Fam1A.1 aminoacylation ribozyme variant] | 47.8 |  | 42.2 | 2.86
50 | CUACUUCAAAUAAUCGGUUUG [Fam1A.1 aminoacylation ribozyme variant] | 16 |  | 8.58 | 
51 | CAACUUCAAACGAUCGGUCUG [Fam1A.1 aminoacylation ribozyme variant] | 2.25 |  | 2.65 | 
52 | CUCCCUCAAACAAUCGGUCUG [Fam1A.1 aminoacylation ribozyme variant] | 3.26 |  | 3.48 | 
53 | AUUCAUCUAGCUCAUCGGGUG [Fam2.2 aminoacylation ribozyme variant] |  | 2.12 | 2.3 | 
54 | CAACUUCAAACAAUCGGUCAG [Fam1A.1 aminoacylation ribozyme variant] | 19.5 |  | 11.9 | 
55 | UUACUUCAAACAAUCAGUCUG [Fam1A.1 aminoacylation ribozyme variant] | 20.1 |  | 9.66 | 
56 | CGACCCUUCAAGCAAUCGGUC [Fam1B.1 aminoacylation ribozyme variant] | 3.2 |  | 3.13 | 
57 | ACUACCCUGGUCAUCGAGAGA [Fam2.1 aminoacylation ribozyme variant] |  | 2.02 |  | 
